Reference: PMC6131548

Target: Tsr2 (in the ITC with yeast ESS2) (S. cerevisiae (yeast)) (UniProt Q06672)
Test: ITC; VP-ITC; 20–40 µM Tsr2 variant in the cell, 400–800 µM ESS2 peptide in the syringe; 25 °C, 20 mM NaPi pH 7.1, 1 mM DTT, 10 µM EDTA

Kd: 700 nM
stoichiometry N: 1
Binder: RPRFNRENKVSPADAAKKAL [ESS2 peptide]
